Results on eight molecules are retold here after paper PMC3711432, “The Fanconi anemia associated protein FAAP24 uses two substrate specific binding surfaces for DNA recognition”.

The target in one series is FAAP24 HhH V162A V162A (UniProt Q9BTP7). The series can be described thus: EMSA. As to conditions: EMSA: 10 mM Tris pH 7.0, 10 mM NaCl (high salt: 50 mM NaHPO4, 400 mM NaCl), 5% glycerol, 1 mM DTT, 20 ug/ml BSA, on ice, gel at 4 C; NMR: 50 mM NaHPO4 pH 6.5 …. (A gel shift assay detects complexes by their altered migration in electrophoresis.)
The target of series [1] is T1, FAAP24 HhH domain (UniProt Q9BTP7 139-215).
T1 sequence: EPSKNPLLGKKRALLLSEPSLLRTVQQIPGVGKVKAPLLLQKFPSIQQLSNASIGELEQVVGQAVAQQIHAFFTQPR
The experiment in a line: NMR; 100 mM NaCl; EMSA: 10 mM Tris pH 7.0, 10 mM NaCl (high salt: 50 mM NaHPO4, 400 mM NaCl), 5% glycerol, 1 mM DTT, 20 ug/ml BSA, on ice, gel at 4 C; NMR: 50 mM NaHPO4 pH 6.5, 100 mM NaCl, 8% D2O, 298 K. To be noted: protein: recombinant; tags: N-terminal His; fork: 10 bp, two 20 nt arms.

The target of series [2] is T1, FAAP24 HhH domain. The experiment in a line: NMR; 100 mM NaCl; CSPs in hairpin 1; EMSA: 10 mM Tris pH 7.0, 10 mM NaCl (high salt: 50 mM NaHPO4, 400 mM NaCl), 5% glycerol, 1 mM DTT, 20 ug/ml BSA, on ice, gel at 4 C; NMR: 50 mM NaHPO4 pH 6.5, 100 mM NaCl, 8% D2O, 298 K. To be noted: protein: recombinant; tags: N-terminal His; blunt.
Another series concerns the target T2, FAAP24 full length (UniProt Q9BTP7 1-215).
T2 sequence: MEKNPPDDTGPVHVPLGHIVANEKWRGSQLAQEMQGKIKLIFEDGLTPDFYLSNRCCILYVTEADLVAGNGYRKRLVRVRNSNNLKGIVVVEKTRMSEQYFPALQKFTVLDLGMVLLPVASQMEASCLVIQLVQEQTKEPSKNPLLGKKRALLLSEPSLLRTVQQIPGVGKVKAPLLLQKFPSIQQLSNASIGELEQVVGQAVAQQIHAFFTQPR
The experiment in a line: NMR; CSPs in hairpin 1, C-terminus and ERCC4-like domain; EMSA: 10 mM Tris pH 7.0, 10 mM NaCl (high salt: 50 mM NaHPO4, 400 mM NaCl), 5% glycerol, 1 mM DTT, 20 ug/ml BSA, on ice, gel at 4 C; NMR: 50 mM NaHPO4 pH 6.5, 100 mM NaCl, 8% D2O, 298 K. To be noted: protein: recombinant; tags: N-terminal His; blunt.

For series [3], the target named is T1, FAAP24 HhH domain. The experiment in a line: EMSA; 10 mM NaCl; apparent Kd; EMSA: 10 mM Tris pH 7.0, 10 mM NaCl (high salt: 50 mM NaHPO4, 400 mM NaCl), 5% glycerol, 1 mM DTT, 20 ug/ml BSA, on ice, gel at 4 C; NMR: 50 mM NaHPO4 pH 6.5, 100 mM NaCl, 8% D2O, 298 K. To be noted: protein: recombinant, tags: N-terminal His, label: radiolabeled.
The target of series [4] is T1, FAAP24 HhH domain. The series can be described thus: NMR; 100 mM NaCl; CSPs comparable with splayed arm; EMSA: 10 mM Tris pH 7.0, 10 mM NaCl (high salt: 50 mM NaHPO4, 400 mM NaCl), 5% glycerol, 1 mM DTT, 20 ug/ml BSA, on ice, gel at 4 C; NMR: 50 mM NaHPO4 pH 6.5, 100 mM NaCl, 8% D2O, 298 K. As to conditions: protein: recombinant; tags: N-terminal His; 5' overhang 20 nt.

The target in another series is T3, FAAP24 HhH R161A (UniProt Q9BTP7 139-215, R161A).
T3 sequence: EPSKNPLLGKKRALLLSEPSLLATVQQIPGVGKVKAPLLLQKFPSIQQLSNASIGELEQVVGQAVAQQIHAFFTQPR
The experiment in a line: EMSA; EMSA: 10 mM Tris pH 7.0, 10 mM NaCl (high salt: 50 mM NaHPO4, 400 mM NaCl), 5% glycerol, 1 mM DTT, 20 ug/ml BSA, on ice, gel at 4 C; NMR: 50 mM NaHPO4 pH 6.5, 100 mM NaCl, 8% D2O, 298 K. As to conditions: protein: recombinant, tags: N-terminal His, (radiolabeled) in EMSA, bubble: 10 bp stem, 10 unpaired nt.

A further series concerns the target T4, FAAP24 HhH K171A/K173A (UniProt Q9BTP7 139-215, K171A;K173A).
T4 sequence: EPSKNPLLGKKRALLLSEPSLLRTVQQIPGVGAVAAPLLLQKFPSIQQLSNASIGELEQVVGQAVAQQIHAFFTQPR
The description is as above. To be noted: protein: recombinant, tags: N-terminal His, (radiolabeled) in EMSA, bubble: 10 bp stem, 10 unpaired nt.

In the next series the target is T5, FAAP24 HhH K173A (UniProt Q9BTP7 139-215, K173A).
T5 sequence: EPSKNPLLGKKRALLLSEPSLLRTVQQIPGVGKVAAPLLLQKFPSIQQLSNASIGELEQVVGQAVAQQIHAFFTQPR
The description is as above. To be noted: protein: recombinant, tags: N-terminal His, (radiolabeled) in EMSA, bubble: 10 bp stem, 10 unpaired nt.

In a further series the target is T6, FAAP24 HhH Q205A/Q206A (UniProt Q9BTP7 139-215, Q205A;Q206A).
T6 sequence: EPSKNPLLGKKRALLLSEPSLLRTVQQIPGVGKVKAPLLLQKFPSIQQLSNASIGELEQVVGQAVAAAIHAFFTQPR
The series can be described thus: EMSA; no significant effect on affinity vs wt; EMSA: 10 mM Tris pH 7.0, 10 mM NaCl (high salt: 50 mM NaHPO4, 400 mM NaCl), 5% glycerol, 1 mM DTT, 20 ug/ml BSA, on ice, gel at 4 C; NMR: 50 mM NaHPO4 pH 6.5, 100 mM NaCl, 8% D2O, 298 K. As to conditions: protein: recombinant, tags: N-terminal His, (radiolabeled) in EMSA, bubble: 10 bp stem, 10 unpaired nt.

Series [5] has as its target T1, FAAP24 HhH domain. The series can be described thus: EMSA; 10 mM NaCl; apparent Kd, multiple complexes; EMSA: 10 mM Tris pH 7.0, 10 mM NaCl (high salt: 50 mM NaHPO4, 400 mM NaCl), 5% glycerol, 1 mM DTT, 20 ug/ml BSA, on ice, gel at 4 C; NMR: 50 mM NaHPO4 pH 6.5, 100 mM NaCl, 8% D2O, 298 K. To be noted: protein: recombinant, tags: N-terminal His, (radiolabeled) in EMSA, bubble: 10 bp stem, 10 unpaired nt.

The target of series [6] is T1, FAAP24 HhH domain. The series can be described thus: NMR; 100 mM NaCl; CSPs in N-terminal linker; EMSA: 10 mM Tris pH 7.0, 10 mM NaCl (high salt: 50 mM NaHPO4, 400 mM NaCl), 5% glycerol, 1 mM DTT, 20 ug/ml BSA, on ice, gel at 4 C; NMR: 50 mM NaHPO4 pH 6.5, 100 mM NaCl, 8% D2O, 298 K. To be noted: protein: recombinant; tags: N-terminal His; single strand.

For the molecule “GGGCGGCGGGTTTTTTTTTTGGCGGGGCGG / CCGCCCCGCCTTTTTTTTTTCCCGCCGCCC [B10 bubble]”, the binding signal (fold decrease in affinity vs wt) in the series with FAAP24 HhH V162A V162A is 2.

B1: splayed arm with 20 nt arms (mixed)
DNA 1: GGGCGGCGGGCGGATAGATTGAAATCTTAG
DNA 2: GATTCTAAAGTTAGATAGGCCCCGCCGCCC
B1: the binding result with FAAP24 HhH domain [1] is recorded as “binds”.

B2: ds10 (dsDNA)
DNA 1: GGGCGGCGGG
DNA 2: CCCGCCGCCC
Turning to B2, the binding result with FAAP24 HhH domain [2] and with FAAP24 full length was “binds” in each case.

B3: ds30 (dsDNA)
DNA 1: GGGCGGCGGGTTTTTTTTTTGGCGGGGCGG
DNA 2: CCGCCCCGCCAAAAAAAAAACCCGCCGCCC
Regarding B3, in the series with FAAP24 HhH domain [3] (blunt), the Kd amounted to 9.1 ± 0.9 µM.

B4: 5' extension (mixed)
DNA: GATTCTAAAGTTAGATAGGCCCCGCCGCCC
?: GGGCGGCGGG
B4: in the series with FAAP24 HhH domain [4], the binding result was “binds”.

B5: B10 bubble (mixed)
DNA 1: GGGCGGCGGGTTTTTTTTTTGGCGGGGCGG
DNA 2: CCGCCCCGCCTTTTTTTTTTCCCGCCGCCC
As to B5, the binding signal with FAAP24 HhH R161A is 2 fold decrease in affinity vs wt; in the series with FAAP24 HhH K171A/K173A it was 4 fold decrease in affinity vs wt; with FAAP24 HhH K173A, 3 fold decrease in affinity vs wt. The binding result with FAAP24 HhH Q205A/Q206A is “binds”. In addition, the Kd with FAAP24 HhH domain [5] was 1.2 ± 0.2 µM.

TGCGAATTCATATGCAATATTCAGTGGCTGAGCTACTGG (ssDNA) [ss39]: the Kd in the series with FAAP24 HhH domain [3] (single strand) was found to be 7.8 ± 0.4 µM.

In the case of TTTTTTTTTTTTTTTTTTTT (ssDNA) [ss20 (dT20)], the binding result with FAAP24 HhH domain [6] is reported as “binds”.
